Laboratory results as given in the supplement of paper PMC10065799, “High-throughput profiling of sequence recognition by tyrosine kinases and SH2 domains using bacterial peptide display” (eLife, 2023).

Legend:
c-Src SH2 = assay: SH2 binding enrichment of the phosphorylated peptide, bacterial display (enrichment ratio); higher = better substrate or ligand; peptides without Tyr show the background
Grb2 SH2 = Grb2 SH2 (UniProt P62993); assay: as above
SHP2-C SH2 = assay: as above
MERTK = MERTK (UniProt Q12866); assay: phosphorylation enrichment, bacterial display (enrichment ratio); higher = better substrate or ligand; peptides without Tyr show the background
c-Src = assay: as above
Hck = Hck (UniProt P08631); assay: as above
Fyn = Fyn (UniProt P06241); assay: as above
Fes = Fes (UniProt P07332); assay: as above
c-Abl (mouse) = assay: as above
EPHB1 = EPHB1 (UniProt P54762); assay: as above
EPHB2 = EPHB2 (UniProt P29323); assay: as above
Jak2 = Jak2 (UniProt O60674); assay: as above
AncSZ = assay: as above
FGFR1 = FGFR1 (UniProt P11362); assay: as above
FGFR3 = FGFR3 (UniProt P22607); assay: as above
Fer (mouse) = assay: as above
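For SH2 binding enrichment of the phosphorylated peptide, bacterial display in this document: peptide library displayed on the E. coli surface as eCPX fusions, selected cells deep-sequenced, score is each peptide's frequency after selection divided by its frequency in the input.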
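For phosphorylation enrichment, bacterial display in this document: 11-residue human phosphosite peptides and single-mutation variants displayed on the E. coli surface, counted by deep sequencing, each peptide's frequency after selection divided by its frequency in the unselected input library; frequency after pTyr selection over input frequency; kinase dosed for 20-30% of maximal phosphorylation in three min.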

Jak2, sequence (O60674 whole entry, looked up): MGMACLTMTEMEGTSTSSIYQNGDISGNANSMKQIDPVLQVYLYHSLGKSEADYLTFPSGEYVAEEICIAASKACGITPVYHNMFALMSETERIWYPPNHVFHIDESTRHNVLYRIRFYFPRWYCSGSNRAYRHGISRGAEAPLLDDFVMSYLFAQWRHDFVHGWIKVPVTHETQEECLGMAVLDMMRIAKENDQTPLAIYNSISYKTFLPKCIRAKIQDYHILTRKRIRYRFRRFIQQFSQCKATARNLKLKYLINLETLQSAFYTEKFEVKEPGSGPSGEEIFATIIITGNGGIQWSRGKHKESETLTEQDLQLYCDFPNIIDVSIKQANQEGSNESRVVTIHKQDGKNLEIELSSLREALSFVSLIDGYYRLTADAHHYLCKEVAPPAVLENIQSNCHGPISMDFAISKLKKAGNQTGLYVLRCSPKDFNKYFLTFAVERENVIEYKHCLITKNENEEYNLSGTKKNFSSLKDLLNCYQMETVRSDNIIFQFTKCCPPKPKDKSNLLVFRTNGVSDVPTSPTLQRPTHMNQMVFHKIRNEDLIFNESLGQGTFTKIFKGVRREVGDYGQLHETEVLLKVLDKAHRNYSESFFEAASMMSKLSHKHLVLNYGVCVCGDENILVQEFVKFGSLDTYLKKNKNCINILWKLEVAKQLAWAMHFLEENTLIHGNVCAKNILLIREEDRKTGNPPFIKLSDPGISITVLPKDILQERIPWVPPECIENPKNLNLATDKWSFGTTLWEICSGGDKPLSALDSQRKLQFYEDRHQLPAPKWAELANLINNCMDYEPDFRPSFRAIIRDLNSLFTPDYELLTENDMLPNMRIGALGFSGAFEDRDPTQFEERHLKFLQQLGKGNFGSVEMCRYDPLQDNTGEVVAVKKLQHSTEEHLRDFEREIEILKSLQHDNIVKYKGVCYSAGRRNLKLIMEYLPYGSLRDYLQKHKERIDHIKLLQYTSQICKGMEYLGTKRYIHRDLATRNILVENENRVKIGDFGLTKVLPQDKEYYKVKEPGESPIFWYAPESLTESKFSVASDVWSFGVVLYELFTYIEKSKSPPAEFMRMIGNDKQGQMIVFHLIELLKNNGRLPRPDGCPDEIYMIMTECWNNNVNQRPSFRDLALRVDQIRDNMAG
MERTK, sequence (Q12866 whole entry, looked up): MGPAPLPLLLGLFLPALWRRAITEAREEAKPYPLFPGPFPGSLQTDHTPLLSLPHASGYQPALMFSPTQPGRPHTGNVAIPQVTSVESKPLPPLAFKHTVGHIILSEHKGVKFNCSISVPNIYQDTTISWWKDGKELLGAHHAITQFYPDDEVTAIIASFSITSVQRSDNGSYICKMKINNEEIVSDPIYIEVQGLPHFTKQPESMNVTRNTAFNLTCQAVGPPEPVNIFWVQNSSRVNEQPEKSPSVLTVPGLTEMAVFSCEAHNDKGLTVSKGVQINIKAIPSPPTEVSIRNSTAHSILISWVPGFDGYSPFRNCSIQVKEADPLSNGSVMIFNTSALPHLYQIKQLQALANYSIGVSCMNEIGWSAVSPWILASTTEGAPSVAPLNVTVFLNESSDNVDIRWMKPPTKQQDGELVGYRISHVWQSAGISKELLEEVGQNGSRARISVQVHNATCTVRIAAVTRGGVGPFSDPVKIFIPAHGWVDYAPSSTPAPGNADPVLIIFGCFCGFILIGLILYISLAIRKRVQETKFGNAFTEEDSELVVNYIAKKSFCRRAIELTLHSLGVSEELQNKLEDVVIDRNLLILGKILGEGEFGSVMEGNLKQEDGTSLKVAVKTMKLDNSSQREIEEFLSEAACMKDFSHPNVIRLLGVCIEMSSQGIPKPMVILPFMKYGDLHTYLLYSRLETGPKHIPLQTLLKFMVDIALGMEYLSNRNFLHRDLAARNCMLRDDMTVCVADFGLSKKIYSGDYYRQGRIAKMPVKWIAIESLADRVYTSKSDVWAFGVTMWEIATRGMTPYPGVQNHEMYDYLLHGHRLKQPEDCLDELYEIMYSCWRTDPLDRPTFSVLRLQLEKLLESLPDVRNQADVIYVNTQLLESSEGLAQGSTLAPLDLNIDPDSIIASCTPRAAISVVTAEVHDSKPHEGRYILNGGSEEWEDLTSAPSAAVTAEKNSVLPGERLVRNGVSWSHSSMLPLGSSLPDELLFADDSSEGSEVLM
Fes, sequence (P07332 whole entry, looked up): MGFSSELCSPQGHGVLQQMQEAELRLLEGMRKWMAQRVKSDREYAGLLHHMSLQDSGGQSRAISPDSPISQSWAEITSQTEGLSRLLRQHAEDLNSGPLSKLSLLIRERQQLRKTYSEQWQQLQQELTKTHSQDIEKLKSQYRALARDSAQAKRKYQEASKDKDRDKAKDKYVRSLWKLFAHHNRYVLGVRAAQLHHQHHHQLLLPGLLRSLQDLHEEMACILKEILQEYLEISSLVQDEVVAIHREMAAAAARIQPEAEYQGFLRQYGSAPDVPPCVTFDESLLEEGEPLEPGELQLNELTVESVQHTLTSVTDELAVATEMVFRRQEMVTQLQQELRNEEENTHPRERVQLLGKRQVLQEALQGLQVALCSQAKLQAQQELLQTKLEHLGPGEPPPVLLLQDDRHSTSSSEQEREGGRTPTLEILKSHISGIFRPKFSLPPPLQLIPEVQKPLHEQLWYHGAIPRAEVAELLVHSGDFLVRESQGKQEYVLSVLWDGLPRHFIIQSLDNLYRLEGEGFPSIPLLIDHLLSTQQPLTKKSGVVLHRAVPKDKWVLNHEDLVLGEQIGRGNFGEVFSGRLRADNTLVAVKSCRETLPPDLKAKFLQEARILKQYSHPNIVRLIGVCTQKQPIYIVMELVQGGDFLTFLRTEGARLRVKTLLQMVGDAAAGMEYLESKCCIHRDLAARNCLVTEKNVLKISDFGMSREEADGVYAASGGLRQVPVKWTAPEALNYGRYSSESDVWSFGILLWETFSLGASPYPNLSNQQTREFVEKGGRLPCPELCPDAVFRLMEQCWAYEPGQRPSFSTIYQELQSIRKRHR
Hck, sequence (P08631 whole entry, looked up): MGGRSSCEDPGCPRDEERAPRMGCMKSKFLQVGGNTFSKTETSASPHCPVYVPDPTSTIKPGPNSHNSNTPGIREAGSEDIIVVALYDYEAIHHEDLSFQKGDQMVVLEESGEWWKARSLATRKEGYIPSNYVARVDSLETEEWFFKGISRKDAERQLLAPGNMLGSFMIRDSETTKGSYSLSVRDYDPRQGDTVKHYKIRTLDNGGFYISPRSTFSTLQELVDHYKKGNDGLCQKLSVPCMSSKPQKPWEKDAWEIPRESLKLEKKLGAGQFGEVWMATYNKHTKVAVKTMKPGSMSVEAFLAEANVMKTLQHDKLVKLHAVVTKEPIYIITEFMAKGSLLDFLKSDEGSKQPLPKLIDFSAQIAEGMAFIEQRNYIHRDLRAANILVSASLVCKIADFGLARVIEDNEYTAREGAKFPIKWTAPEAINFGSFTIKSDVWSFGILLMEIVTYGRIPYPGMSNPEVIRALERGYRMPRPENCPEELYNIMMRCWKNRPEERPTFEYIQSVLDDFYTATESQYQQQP
FGFR3, sequence (P22607 whole entry, looked up): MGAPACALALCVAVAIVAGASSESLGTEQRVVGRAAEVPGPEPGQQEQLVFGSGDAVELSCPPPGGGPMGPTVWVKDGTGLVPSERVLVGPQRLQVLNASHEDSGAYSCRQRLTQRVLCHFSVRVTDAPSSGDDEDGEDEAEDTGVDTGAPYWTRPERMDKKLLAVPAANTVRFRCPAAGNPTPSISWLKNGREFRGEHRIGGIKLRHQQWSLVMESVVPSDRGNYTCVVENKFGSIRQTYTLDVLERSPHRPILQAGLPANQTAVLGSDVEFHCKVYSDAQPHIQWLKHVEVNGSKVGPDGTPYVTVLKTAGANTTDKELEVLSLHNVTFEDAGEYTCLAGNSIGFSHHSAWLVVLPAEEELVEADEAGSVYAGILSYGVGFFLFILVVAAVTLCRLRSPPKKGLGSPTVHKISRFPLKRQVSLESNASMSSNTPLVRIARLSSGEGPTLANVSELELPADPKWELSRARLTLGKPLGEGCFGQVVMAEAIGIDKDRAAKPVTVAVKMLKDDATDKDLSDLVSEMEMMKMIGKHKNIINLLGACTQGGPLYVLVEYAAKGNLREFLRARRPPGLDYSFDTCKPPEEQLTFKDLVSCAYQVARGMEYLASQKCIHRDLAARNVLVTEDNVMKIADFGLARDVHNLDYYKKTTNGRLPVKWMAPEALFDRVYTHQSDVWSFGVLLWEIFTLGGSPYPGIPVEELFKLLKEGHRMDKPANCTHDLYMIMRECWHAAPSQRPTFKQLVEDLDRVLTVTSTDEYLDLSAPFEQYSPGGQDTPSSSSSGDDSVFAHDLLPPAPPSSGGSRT
Fyn, sequence (P06241 whole entry, looked up): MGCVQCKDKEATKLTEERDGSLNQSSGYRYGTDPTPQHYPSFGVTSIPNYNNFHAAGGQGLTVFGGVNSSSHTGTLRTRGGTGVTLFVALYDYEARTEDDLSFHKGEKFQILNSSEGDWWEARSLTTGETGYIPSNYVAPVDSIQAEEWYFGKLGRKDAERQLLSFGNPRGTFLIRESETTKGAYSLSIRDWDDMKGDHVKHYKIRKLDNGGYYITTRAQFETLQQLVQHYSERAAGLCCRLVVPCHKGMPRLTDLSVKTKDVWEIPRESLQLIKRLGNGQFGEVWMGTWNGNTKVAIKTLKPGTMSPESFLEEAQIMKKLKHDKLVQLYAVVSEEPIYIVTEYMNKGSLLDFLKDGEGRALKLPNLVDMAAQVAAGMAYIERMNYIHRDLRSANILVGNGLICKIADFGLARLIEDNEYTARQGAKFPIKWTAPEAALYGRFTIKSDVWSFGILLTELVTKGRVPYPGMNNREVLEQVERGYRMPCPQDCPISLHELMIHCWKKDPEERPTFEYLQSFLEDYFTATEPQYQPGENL

SH2 binding enrichment (c-Src SH2)	SH2 binding enrichment (Grb2 SH2)	SH2 binding enrichment (SHP2-C SH2)	Sequence	phosphorylation enrichment (MERTK)	phosphorylation enrichment (c-Src)	phosphorylation enrichment (Hck)	phosphorylation enrichment (Fyn)	phosphorylation enrichment (Fes)	phosphorylation enrichment (c-Abl (mouse))	phosphorylation enrichment (EPHB1)	phosphorylation enrichment (EPHB2)	phosphorylation enrichment (Jak2)	phosphorylation enrichment (AncSZ)	phosphorylation enrichment (FGFR1)	phosphorylation enrichment (FGFR3)	phosphorylation enrichment (Fer (mouse))
3.24	0.801	0.464	LLEGKYEWQEV [CDKN1B_Y74_P69L]	0.964	1.01	0.889	0.908	2.74	1.79	1.45	1.43	3	2	1.14	1.48	1.75
1.23	1.62	1.59	MGRVKYGAFIN [GLB1_Y485_N484K_YF]	0.443	0.458	0.439	0.382	0.701	0.532	0.368	0.376	0.528	0.566	0.402	0.453	0.348
1.53	0.633	0.68	TVSTGYTQPQP [SARG_Y259_R258G]	0.371	0.479	0.47	0.442	0.64	0.511	0.378	0.374	0.508	0.675	0.523	0.629	0.513
2.03	3.76	4.03	LTVVIYVLVGR [EPHA3_Y561_I564V]	0.479	0.183	0.168	1.12	0.63	0.81	0.26	0.251	0.391	1.16	0.54	0.44	0.348
0.517	0.94	1.27	DKATEYIQYVR [MAX_Y70_M74V]	0.425	0.493	0.552	0.535	0.976	0.582	0.519	0.582	0.763	0.983	0.506	0.507	0.43
0.544	0.952	0.781	NTDETYCIDNE [TUBB2B_Y200]	0.598	0.809	0.728	0.795	1.57	0.982	0.813	0.797	1.53	1.47	0.64	1.14	0.724
0.544	0.812	0.825	PDMHSYVVRYN [GRIN2D_Y732_M733V]	0.413	0.603	0.721	0.554	1.13	0.694	0.787	0.723	1.04	1.13	0.56	0.844	0.434
1.44	1.58	2.64	LVMFFYAIFGM [SCN1A_Y1684_I1683F]	0.84	0.524	0.446	0.789	1.23	0.937	0.608	0.566	1.06	1.35	0.898	1.34	0.708
12.5	1.05	1.89	ADSLRYIYPKL [EIF2B3_Y92]	0.43	0.472	0.386	0.332	0.602	0.471	0.416	0.362	0.634	0.552	0.354	0.463	0.339
0.893	1.39	0.842	LVMFISAIFGM [SCN1A_Y1684_Y1684S]	0.722	0.922	0.804	0.788	2.05	1.36	1.1	1.07	1.77	1.69	1.15	1.46	1.33
1.14	1.35	1.25	AGLVQYYMEHH [PTPN11_Y80_E76G]	0.49	0.468	0.754	0.545	0.939	0.448	0.973	0.777	0.607	0.677	0.608	0.73	0.499
0.611	1.05	0.663	PATINYLFEKG [NDUFS8_Y84_P85L]	0.36	0.435	0.562	0.357	0.891	0.293	0.541	0.529	0.703	0.754	0.796	0.963	0.43
0.418	0.88	0.634	NFGTNYRVGSS [CPO_Y278_K273N_YF]	0.42	0.442	0.482	0.43	0.716	0.525	0.417	0.515	0.534	0.602	0.508	0.424	0.429
0.713	1.02	0.785	TAALWYIFSHT [ENG_Y612_YF]	0.491	0.722	0.536	0.514	1.5	1.19	0.733	0.593	1.36	1.26	0.543	1.03	0.496
0.949	0.808	0.614	DLDLTSIYPNI [PTEN_Y27_Y27S]	0.516	0.53	0.478	0.506	0.955	0.837	0.498	0.582	0.903	0.871	0.468	0.78	0.425
0.765	0.776	0.608	GAAMLYYPSVS [GPR143_Y177]	4.88	1.11	1.46	0.747	0.783	0.941	1.5	1.66	2.6	0.763	4.07	3.51	0.63

SH2 binding enrichment (c-Src SH2)	SH2 binding enrichment (Grb2 SH2)	SH2 binding enrichment (SHP2-C SH2)	Sequence	phosphorylation enrichment (MERTK)	phosphorylation enrichment (c-Src)	phosphorylation enrichment (Hck)	phosphorylation enrichment (Fyn)	phosphorylation enrichment (Fes)	phosphorylation enrichment (c-Abl (mouse))	phosphorylation enrichment (EPHB1)	phosphorylation enrichment (EPHB2)	phosphorylation enrichment (Jak2)	phosphorylation enrichment (AncSZ)	phosphorylation enrichment (FGFR1)	phosphorylation enrichment (FGFR3)	phosphorylation enrichment (Fer (mouse))
0.402	0.646	0.461	ANNEYYFRVCA	0.439	0.526	0.657	0.471	1.4	1.08	0.895	0.759	1.53	1.4	1.89	1.94	0.469
0.762	0.903	0.59	SVVAPYEPPEV [TP53_Y220_V218A]	0.629	0.672	0.624	0.67	1.48	1.08	0.629	0.617	1.1	1.34	0.528	0.753	0.578
2.48	1.21	0.931	HGEAFYSEVKA [PAK5_Y182_P187A_YF]	8.27	4.05	5.57	3.92	1.01	0.619	1.26	1.47	0.834	0.971	4.75	2.63	11
0.448	0.724	0.634	GKVADYIPQLP [GLS_Y249_A254P]	0.455	0.484	0.448	0.484	0.866	0.795	0.468	0.49	0.892	0.796	0.57	0.634	0.495
0.847	0.965	0.941	VYYYSYLLKNH [PTEN_Y180]	3.89	1.63	1.74	1.12	1.33	2.84	1.72	1.07	2.14	1.48	4.67	3.68	0.82
0.362	0.655	0.426	ISRASYYRKGG [ALK_Y1282_Y1278S]	0.576	0.509	0.496	0.511	0.701	0.569	0.427	0.428	0.51	0.588	0.409	0.532	0.473
1.31	1.58	1.7	RAILLYEFVGK [NATD1_Y45_V42I_YF]	24.9	12.3	19.9	12.1	7.5	2.52	49.4	65.8	3.76	4.95	4.88	5.57	32.5
0.596	0.767	0.539	PLDGEYFTLRI [TP53_Y327_Q331R]	0.45	3.13	1.76	2.55	2.19	1.93	1.04	1.04	2.88	2.77	6.1	5	0.971
0.432	0.753	0.593	TENAGYFFRIS	0.388	0.514	0.548	0.511	1.42	0.925	0.733	0.703	1.46	1.52	0.511	0.868	0.487
0.981	1.31	1.38	AKFPFYEKNKK [FOXL2_Y91]	0.436	0.415	0.443	0.405	0.806	0.545	0.407	0.467	0.655	0.589	0.441	0.533	0.304
0.593	0.745	1.55	SGSIHYSHVPR [GLB1_Y57_R59H]	0.425	0.383	0.451	0.35	0.79	0.658	0.426	0.451	0.6	0.681	0.451	0.518	0.606
0.567	1.01	0.715	RDMNAYISPSP [MMAA_Y207_R209S]	0.451	0.416	0.323	0.365	1.03	0.671	0.553	0.477	0.879	0.505	0.432	0.508	0.66
0.466	0.899	0.637	ILGRTHFVNHE [NEDD4_Y627_Y627H_YF]	0.423	0.377	0.451	0.476	0.707	0.5	0.471	0.535	0.485	0.633	0.397	0.559	0.457
0.421	0.678	0.563	LSVEIHDRREF [ITGB7_Y753_Y753H_YF]	0.558	0.795	0.814	0.65	1.59	0.86	0.88	1.1	1.3	1.63	0.87	1.17	0.795
0.556	0.748	0.696	TYEPNYGTVKQ [RAPGEF6_Y1447]	0.644	1.44	1.66	2.21	0.667	1.2	1.54	5.21	0.47	0.864	0.553	0.659	2.44
0.404	0.761	0.353	RIVEIYSRRLR [GCH1_Y175_Q180R]	0.773	0.81	0.736	0.922	0.623	0.692	0.728	0.654	0.619	0.691	0.292	0.549	1.15

Sequence	SH2 binding enrichment (c-Src SH2)	SH2 binding enrichment (Grb2 SH2)	SH2 binding enrichment (SHP2-C SH2)	phosphorylation enrichment (MERTK)	phosphorylation enrichment (c-Src)	phosphorylation enrichment (Hck)	phosphorylation enrichment (Fyn)	phosphorylation enrichment (Fes)	phosphorylation enrichment (c-Abl (mouse))	phosphorylation enrichment (EPHB1)	phosphorylation enrichment (EPHB2)	phosphorylation enrichment (Jak2)	phosphorylation enrichment (AncSZ)	phosphorylation enrichment (FGFR1)	phosphorylation enrichment (FGFR3)	phosphorylation enrichment (Fer (mouse))
KENITYMKSEQ [L1TD1_Y24_R27S]	0.53	1.01	0.629	0.39	0.425	0.457	0.358	0.767	0.503	0.411	0.426	0.585	0.806	0.456	0.524	0.32
